Experimental data from publication PMC4919469, “Investigation of the Interaction between Cdc42 and Its Effector TOCA1” (The Journal of Biological Chemistry, 2016).

T1: TOCA1 HR1-SH3 (residues 330–545) (Xenopus tropicalis, UniProt Q6GUF4 330-545)
T1 construct: Xenopus tropicalis TOCA1, C-terminally extended HR1 construct, residues 330-545, in pMAT10-P; also called HR1-SH3 protein; TOCA1 330–545; source: E. coli, purified (Ni-NTA, 3C protease cleavage, gel filtration); not shown: His, N-terminal, cleaved; MBP, N-terminal, cleaved
T1 sequence (looked up): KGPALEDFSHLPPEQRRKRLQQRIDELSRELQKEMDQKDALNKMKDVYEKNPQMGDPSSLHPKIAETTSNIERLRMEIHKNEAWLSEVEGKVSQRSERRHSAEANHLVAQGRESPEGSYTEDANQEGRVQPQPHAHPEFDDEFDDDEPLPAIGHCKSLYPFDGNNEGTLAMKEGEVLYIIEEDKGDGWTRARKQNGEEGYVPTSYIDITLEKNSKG

B1: Cdc42Δ7Q61L (domain or fragment)
chain: not shown
notes: Human Cdc42 with seven residues deleted from the C terminus and the mutation Q61L; cloned into pGEX-2T; Loaded with [3H]GTP for SPA and with GMPPNP for NMR; 15N- or 15N/13C-labelled in some NMR experiments; also called truncated Cdc42; Cdc42Δ7Q61L·[3H]GTP; source: E. coli BL21, purified (glutathione-agarose, thrombin cleavage, gel filtration)

Legend:
Conditions in all cases: both partners purified
full-length Cdc42Q61L = molecular target: T2, full-length Cdc42Q61L (human, UniProt P60953 1-191, Q61L); test: scintillation proximity assay; competition; free effector domain titrated into 30 nM Cdc42·[3H]GTP and 30 nM GST-ACK (in Fig. 7B GST-ACK or GST-WASP GBD) immobilised on a fluoromicrosphere; Kd from competition binding isotherms
T2 construct: Human Cdc42, full length, Q61L; cloned into pGEX-6P-1; confirmed as full-length by mass spectrometry; Loaded with [3H]GTP for SPA; also called Cdc42FLQ61L; full-length [3H]GTP·Cdc42; source: E. coli BL21, purified (glutathione-agarose, 3C protease cleavage, gel filtration)
T2 sequence (P60953 whole entry Q61L, the tested form may be a part): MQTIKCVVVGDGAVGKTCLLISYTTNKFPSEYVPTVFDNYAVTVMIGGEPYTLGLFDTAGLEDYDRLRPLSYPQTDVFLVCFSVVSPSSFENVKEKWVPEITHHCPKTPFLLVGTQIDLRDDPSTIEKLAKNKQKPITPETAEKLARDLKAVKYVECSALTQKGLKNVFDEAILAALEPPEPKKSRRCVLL

[1] = molecular target: T1, TOCA1 HR1-SH3 (residues 330–545); test: as above
Cdc42Δ7Q61L [2] = molecular target: B1; test: scintillation proximity assay; direct binding; 30 nM GST-PAK, GST-ACK or His-tagged TOCA1 construct attached to a fluoromicrosphere via an anti-GST or anti-His antibody; Cdc42·[3H]GTP at increasing concentrations; apparent Kd from a direct binding isotherm
Chain of Cdc42Δ7Q61L (P60953 1-184 Q61L): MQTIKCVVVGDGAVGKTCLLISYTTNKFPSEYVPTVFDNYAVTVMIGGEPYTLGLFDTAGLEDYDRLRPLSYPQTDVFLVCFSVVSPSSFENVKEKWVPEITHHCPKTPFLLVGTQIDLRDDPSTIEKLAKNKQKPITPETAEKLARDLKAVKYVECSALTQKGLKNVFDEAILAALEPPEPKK

Cdc42Δ7Q61L [3] = molecular target: B1; test: scintillation proximity assay; competition; free effector domain titrated into 30 nM Cdc42·[3H]GTP and 30 nM GST-ACK (in Fig. 7B GST-ACK or GST-WASP GBD) immobilised on a fluoromicrosphere; Kd from competition binding isotherms

Kd (full-length Cdc42Q61L)	Kd (Cdc42Δ7Q61L [3])	Binder	further results
5 µM		CIP4 HR1 domain (residues 388–481) (domain or fragment, human, UniProt Q15642 388-481, looked up, also called HR1^CIP4; source: E. coli BL21, purified (glutathione-agarose, 3C protease cleavage, gel filtration); not shown: GST, N-terminal, cleaved) TEDFSHLPPEQQRKRLQQQLEERSRELQKEVDQREALKKMKDVYEKTPQMGDPASLEPQIAETLSNIERLKLEVQKYEAWLAEAESRVLSNRGD	
10 µM		FBP17 HR1 domain (residues 385–486) (domain or fragment, Xenopus laevis, UniProt Q6GNV5 385-486, looked up, Xenopus laevis FBP17 HR1 domain, residues 385-486, from IMAGE clone 5514481, in pGEX-6P-1; also called HR1^FBP17; source: E. coli BL21, purified (glutathione-agarose, 3C protease cleavage, gel filtration); not shown: GST, N-terminal, cleaved) LKRGGSTPEDFSNLPPEQRRKKLQQKVDELNKDIQKEIDQRDALTKMRDVYTKNPQMGDAASVGQKLVEIGNNIEKLRVEVQKFEGWLAEVEGRLSARNDSS	
		B1	Kd [1]: 4.6 µM
		TOCA1 HR1 domain (residues 330–426) with C-terminal His6 tag (domain or fragment, Xenopus tropicalis, UniProt Q6GUF4 330-426, looked up, Xenopus tropicalis TOCA1 HR1 domain, residues 330-426, from cDNA NM_001005148, in pGEX-HisP; also called HR1-His6; C-terminally His-tagged TOCA1 HR1 domain construct; source: E. coli BL21, purified (glutathione-agarose, 3C protease cleavage, gel filtration); not shown: GST, N-terminal, cleaved; His6, C-terminal, kept) KGPALEDFSHLPPEQRRKRLQQRIDELSRELQKEMDQKDALNKMKDVYEKNPQMGDPSSLHPKIAETTSNIERLRMEIHKNEAWLSEVEGKVSQRSE	Kd (Cdc42Δ7Q61L [2]): > 1 µM
5.39 µM	6.05 µM	TOCA1 HR1 domain (residues 330–426), untagged (domain or fragment, Xenopus tropicalis, UniProt Q6GUF4 330-426, looked up, Xenopus tropicalis TOCA1 (transducer of Cdc42-dependent actin assembly protein 1) HR1 domain, residues 330-426, from cDNA NM_001005148, in pGEX-6P-1; 15N- or 13C/15N-labelled in some NMR experiments; also called HR1^TOCA1; TOCA HR1 domain; source: E. coli BL21, purified (glutathione-agarose, 3C protease cleavage, gel filtration); not shown: GST, N-terminal, cleaved) KGPALEDFSHLPPEQRRKRLQQRIDELSRELQKEMDQKDALNKMKDVYEKNPQMGDPSSLHPKIAETTSNIERLRMEIHKNEAWLSEVEGKVSQRSE	
	0.037 µM	N-WASP G protein-binding domain (GBD) (residues 197–255) (domain or fragment, Xenopus tropicalis, UniProt Q6NX29 197-255, looked up, also called N-WASP GBD; N-WASP CRIB domain; source: E. coli BL21-CodonPlus-RIL, purified (glutathione-agarose, 3C protease cleavage, gel filtration); not shown: GST, N-terminal, cleaved) KKKLTKADIGTPSNFQHIGHVGWDPNTGFDVNNLDPELKKLFDLCGISEAQLKDKETSK	
